Patent US20060257955

Target: T1, labeled peptide ecot2 (T2), Dabcyl-KVSRRRRRGGD-Edans (not fully specified)
T1 chain: KVSRRRRRGGD

B1: E. coli outer membrane protease OmpT (protein)
chain: STETLSFTPDNINADISLGTLSGKTKERVYLAEEGGRKVSQLDWKFNNAAIIKGAINWDLMPQISIGAAGWTTLGSRGGNMVDQDWMDSSNPGTWTDESRHPDTQLNYANEFDLNIKGWLLNEPNYRLGLMAGYQESRYSFTARGGSYIYSSEEGFRDDIGSFPNGERAIGYKQRFKMPYIGLTGSYRYEDFELGGTFKYSGWVESSDNDEHYDPGKRITYRSKVKDQNYYSVAVNAGYYVTPNAKVYVEGAWNRVTNKKGNTSLYDHNNNTSDYSKNGAGIENYNFITTAGLKYTF
protease assay (cleavage of substrate T2, relative fluorescence), buffer with 5% fetal bovine serum: detection of the presence of E. coli in the E. coli sample occurred in the presence of FBS
protease assay (cleavage of substrate T2, relative fluorescence), simulated wound fluid buffer with 5% bovine serum albumin: the protease reactivity of the E. coli sample was not affected by the simulated wound fluid buffer
